The text below walks through data of US20210171950, “METHOD OF PRODUCING AN APTAMER AND USES THEREOF” (City University of Hong Kong, published 2021).

This data set has as its target T1, RHAU53 peptide (DHX36/RHAU residues 53-106 as printed) (UniProt Q9H2U1 SEQ:1-53).
T1 sequence: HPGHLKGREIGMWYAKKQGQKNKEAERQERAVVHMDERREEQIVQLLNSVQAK
As to the kind of experiment: EMSA; 80 nM RHAU53, 2 nM FAM-D-TERRA; 25 mM Tris-HCl pH 7.5, 150 mM KCl, 1 mM MgCl2, 37 C; gel with 40 mM KOAc; complex formation inhibited by L-RNA Ap3-7 (SEQ 19, binds the TERRA RNA) with IC50 937.1±1.7 nM. The following applies: tags: peptide obtained from OriGene; label: 5'FAM; G4 (3 G-quartets, UUA loops). On the procedure:
L-RNA Ap3-7 and S′FAM labelled D-RNA TERRA were heated at 75° C. for 3 minutes and cooled down separately. Then, reaction mixtures containing 2 nM 5′FAM labelled D-TERRA, 25 mM Tris-HCl (pH 7.5), 150 mM KCl and 1 mM MgCl₂ were prepared. Corresponding amount of L-Ap3-7 and 80 nM RHAU53 were premixed, then added to the specific samples and incubated at 37° C. for 30 minutes. The final samples were loaded onto a native PAGE (6%, 49:1), containing 40 mM KOAc, 1 mM MgCl₂ and 0.5×TBE (pH 8.3), and run at 30 mA for 75 minutes.
To study if L-Ap3-7 can compete with rG4-binding protein and inhibit the D-TERRA rG4-protein complex formation, the inventors have tested it with RHAU53 peptide. Particularly, L-RNA Ap3-7 and S′FAM labelled D-RNA TERRA were heated at 75° C. for 3 minutes and cooled down separately. Then, reaction mixtures containing 2 nM 5′FAM labelled D-TERRA, 25 mM Tris-HCl (pH 7.5), 150 mM KCl and 1 mM MgCl₂ were prepared. Corresponding amount of L-Ap3-7 and 80 nM RHAU53 were premixed, then added to the specific samples and incubated at 37° C. for 30 minutes. The final samples were loaded onto a native PAGE (6%, 49:1), containing 40 mM KOAc, 1mM MgCl₂ and 0.5 X TBE (pH 8.3), and run at 30 mA for 75 minutes. […]

Regarding UUAGGGUUAGGGUUAGGGUUAGGG (ssRNA) [D-TERRA rG4], the binding result was “binds”.
